Experimental data from PMC2112603 (The Journal of Cell Biology, 1983).

Target: F-actin from chicken breast muscle (chicken, UniProt P68139 1-377)
Experiment: co-sedimentation

B1: 110-kdalton protein-calmodulin complex (complex)
chain 1: MEATTSLLDAAAVGDLVMLDPLSEESLLRTLQERFSRGEIYTYIGEVVISVNPYKPLPIYTPEKVEEYHNCNFFAVKPHIYAIADDAYRSLRDRDRDQCILITGESGAGKTEASKLVMSYVAAVSSKGEEVDKVKEQLLQSNPVLEAFGNAKTIRNDNSSRFGKYMDVEFDFKGDPLGGVISNYLLEKSRIVRHVKGERNFHIFYQLLAGGSAQLLQQLKLRPDCSHYGYLNHEKSVLPGMDDAANFRAMQDAMAIIGFAPAEVTALLEVTAVVLKLGNVKLSSCFQASGMEASSITEPRELQEISQLIGLDPSTLEQALCSRTVKVRDESVLTALSVSQGYYGRDALAKNIYSRLFDWLVNRINTSIQVKPGKQRKVMGVLDIYGFEIFQDNGFEQFIINYCNEKLQQIFILMTLKEEQEEYVREGIQWTPVEFFDNSIICDLIENSKVGILAMLDEECLRPGTVNEDTFITKLNQIFASHKRYESKETLNAKHVTDVSLPLRCFRIHHYAGKVTYNVTGFIEKNNDLLFRDLSQAMWAARHTLLRSLFPEGDPQRPSLKLPPTTGSQFKASVATLMKNLYSKNPNYIRCIKPNDTKTAMLFTPDLVLAQVRYLGLMENVRVRRAGYAFRQLYQPFLERYKMLSRKTWPRWTGGDREGAEVLLAELKFPPEELAYGHTKIFIRSPRTLFDLEKRRQQRVAELATLIQKMFRGWCCRKRYQLMRKSQILISAWFRGHMQRNRYKQMKRSVLLLQAYARGWKTRRMYRRYFRSDACTRLSNFIYRRMVQKYLMGLQKNLPPMAVLDRTWPPAPYKFLSDANQELKSIFYRWKCKKYREQLTPQQRAMLQAKLCASELFKDKKALYAQSLQQPFRGEYLGLTQNRKYQKLQAVAKDKLVMAEAVQKVNRANGKTVPRLLLLTTEHLVLADPKAAQPKMVLSLCDIQGASVSRFSDGLLALHLKETSTAGGKGDLLLVSPHLIELVTRLHQTLMDATAQALPLSIADQFSTRFPKGDVAVTVVESAKGGGDVPVCKKRGSHKMEILVH
chain 2: […]
**Q.** Does B1 bind?
**A.** binds
